How the values were obtained:
[1] = biological target: T1, MC-4 receptor (Homo sapiens, UniProt P32245, D146M); test: SMS-Luc luciferase reporter assay in HEK293 cells; type: cell-based; details: FIG. 10
T1 construct: expressed in transfected cells; host or cells: HEK293
Description: Briefly, HEK293 cells were cotransfected, as described above, with an expression vector encoding either the wild-type MC-4 receptor or the Asp146Met mutant MC-4 receptor and the reporter construct, SMS-Luc. As a negative control, cells were transfected with SMS-Luc and pcDNA1. Basal and ligand (αMHS) induced activity of the negative control, the wild-type MC-4 receptor, and the Asp146Met mutant MC-4 receptor were measured using the luciferase assay described above.

[2] = tested on: rat mu opioid receptor; test: CRE-Luc luciferase reporter assay with forskolin stimulation; type: cell-based; details: FIG. 3, CRE-Luc
Excerpt: Similarly, a constitutively active rat mu opioid receptor was identified using a reporter construct sensitive to Gαi coupling (see FIG. 3). The response element employed in this assay was the cAMP-response element (CRE), which is sensitive to Gαi mediated changes in intracellular levels of cAMP. Signaling through the rat mu opioid receptor via Gαi inhibits adenylate cyclase, causing a decrease in intracellular cAMP. Therefore, an increase in rat mu opioid receptor signaling induces a decrease in CRE mediated reporter activity.
Prior to the present invention, Gαi-mediated decreases in intracellular cAMP were measured by (1) stimulating cells with forskolin, which causes receptor-independent activation of adenylate cyclase and generates an intracellular pool of cAMP; (2) stimulating the cells with ligand; and (3) measuring the ligand-induced, receptor-dependent Gαi-mediated decrease in the intracellular cAMP pool (e.g., using a radioimmunoassay (e.g., New England Nuclear, Boston, Mass.)). […] The basal (and ligand-induced) level of receptor activity was then measured using a standard luciferase assay (see FIG. 3). Coexpression of the receptor of interest with a luciferase reporter gene construct allows one to measure light emission as a readout for basal signaling.

T1 sequence (P32245 whole entry D146M): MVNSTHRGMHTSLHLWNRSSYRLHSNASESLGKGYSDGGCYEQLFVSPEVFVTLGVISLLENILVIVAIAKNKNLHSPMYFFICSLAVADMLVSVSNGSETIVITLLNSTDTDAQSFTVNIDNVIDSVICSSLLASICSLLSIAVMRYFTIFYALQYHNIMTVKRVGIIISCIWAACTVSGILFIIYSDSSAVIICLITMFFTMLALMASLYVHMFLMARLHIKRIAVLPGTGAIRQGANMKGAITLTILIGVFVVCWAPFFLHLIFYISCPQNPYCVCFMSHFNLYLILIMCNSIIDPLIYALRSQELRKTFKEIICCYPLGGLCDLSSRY

Row | Molecule | basal level activity compared to wild-type MC-4 receptor [1] | effect of agonist stimulation on forskolin induced activity [2]
1 | Asp146Met mutant MC-4 receptor: melanocortin-4 receptor with Asp146Met substitution in the DRY motif | higher basal level activity | –
2 | C[C@@H](NC(=O)[C@@H](N)Cc1ccc(O)cc1)C(=O)NCC(=O)N(C)[C@@H](Cc1ccccc1)C(=O)NCCO [DAMGO, [D-Ala^2-MePhe^4, Gly-ol^5]enkephalin], reference compound] | – | decrease in forskolin induced activity
